# What was measured:
# HeLa Kyoto [1] = assay: solubility in G1/S (NP-40 vs SDS abundance) (log2 ratio); higher = more soluble; details: cell cycle stage: G1/S
# HeLa Kyoto [2] = assay: melting temperature (median over replicates), in situ; higher = more thermally stable
# HeLa Kyoto [3] = assay: solubility change mitosis vs G1/S (difference of NP-40 vs SDS log2 ratios) (log2 ratio difference); higher = more soluble in mitosis
# HeLa Kyoto [4] = assay: thermal stability score vs G1/S (z-score of summed log2 fold changes over temperatures); higher = more thermally stable than in G1/S
# [5] = cell cycle stage: early G1 (4.5 h after nocodazole release)
# 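Wherever melting temperature (median over replicates), in situ is given: HeLa Kyoto cells synchronized by double thymidine or nocodazole block, proteins quantified by TMT10plex mass spectrometry, three independent biological replicates.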
# 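Wherever solubility change mitosis vs G1/S (difference of NP-40 vs SDS log2 ratios) is given: synchronized HeLa Kyoto cells (double thymidine block for G1/S, nocodazole release for mitosis), protein amounts in NP-40 versus SDS lysates quantified by mass spectrometry, three biological replicates.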
# 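Wherever solubility in G1/S (NP-40 vs SDS abundance) is given: HeLa Kyoto cells arrested at G1/S by double thymidine block, proteins quantified by TMT10plex mass spectrometry in mild NP-40 versus SDS extracts, three biological replicates.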
# 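Wherever thermal stability score vs G1/S (z-score of summed log2 fold changes over temperatures) is given: synchronized HeLa Kyoto cells, proteins quantified by TMT10plex mass spectrometry, three biological replicates, mitosis taken 0.5 h after nocodazole release, G1/S directly after double thymidine block.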
Substance,solubility in G1/S (log2) (HeLa Kyoto [1]),melting temperature (HeLa Kyoto [2]; cell cycle stage: G1/S) [°C],melting temperature (HeLa Kyoto [2]; cell cycle stage: mitosis) [°C],solubility change mitosis (log2) (HeLa Kyoto [3]),thermal stability score (HeLa Kyoto [4]; [5]),thermal stability score (HeLa Kyoto [4]; cell cycle stage: mitosis)
MAAHLVKRCTCLLREAARQAPAMAPVGRLRLAWVAHKTLTSSATSPISHLPGSLMEPVEKERASTPYIEKQVDHLIKKATRPEELLELLGGSHDLDSNQAAMVLIRLSHLLSEKPEDKGLLIQDAHFHQLLCLLNSQIASVWHGTLSKLLGSLYALGIPKASKELQSVEQEVRWRMRKLKYKHLAFLAESCATLSQEQHSQELLAELLTHLERRWTEIEDSHTLVTVMMKVGHLSEPLMNRLEDKCLELVEHFGPNELRKVLVMLAAQSRRSVPLLRAISYHLVQKPFSLTKDVLLDVAYAYGKLSFHQTQVSQRLATDLLSLMPSLTSGEVAHCAKSFALLKWLSLPLFEAFAQHVLNRAQDITLPHLCSVLLAFARLNFHPDQEDQFFSLVHEKLGSELPGLEPALQVDLVWALCVLQQAREAELQAVLHPEFHIQFLGGKSQKDQNTFQKLLHINATALLEYPEYSGPLLPASAVAPGPSALDRKVTPLQKELQETLKGLLGSADKGSLEVATQYGWVLDAEVLLDSDGEFLPVRDFVAPHLAQPTGSQSPPPGSKRLAFLRWEFPNFNSRSKDLLGRFVLARRHIVAAGFLIVDVPFYEWLELKSEWQKGAYLKDKMRKAVAEELAK [TBRG4],0.123,48.4,48.2,-0.127,0.141,3.9
MVGQMYCYPGSHLARALTRALALALVLALLVGPFLSGLAGAIPAPGGRWARDGQVPPASRSRSVLLDVSAGQLLMVDGRHPDAVAWANLTNAIRETGWAFLELGTSGQYNDSLQAYAAGVVEAAVSEELIYMHWMNTVVNYCGPFEYEVGYCERLKSFLEANLEWMQEEMESNPDSPYWHQVRLTLLQLKGLEDSYEGRVSFPAGKFTIKPLGFLLLQLSGDLEDLELALNKTKIKPSLGSGSCSALIKLLPGQSDLLVAHNTWNNYQHMLRVIKKYWLQFREGPWGDYPLVPGNKLVFSSYPGTIFSCDDFYILGSGLVTLETTIGNKNPALWKYVRPRGCVLEWVRNIVANRLASDGATWADIFKRFNSGTYNNQWMIVDYKAFIPGGPSPGSRVLTILEQIPGMVVVADKTSELYQKTYWASYNIPSFETVFNASGLQALVAQYGDWFSYDGSPRAQIFRRNQSLVQDMDSMVRLMRYNDFLHDPLSLCKACNPQPNGENAISARSDLNPANGSYPFQALRQRSHGGIDVKVTSMSLARILSLLAASGPTWDQVPPFQWSTSPFSGLLHMGQPDLWKFAPVKVSWD [PLBD2],0.298,56.6,55.9,-0.0289,-1.75,-1.5
ASAP1,0.0639,50.5,51.1,-0.0861,0.472,0.143
SLC7A5,0.0865,60.4,57.8,-0.0332,-2.12,-3.93
PRRC2C,-0.328,55.6,55.2,0.111,-0.644,-2.2
MGLLDLCEEVFGTADLYRVLGVRREASDGEVRRGYHKVSLQVHPDRVGEGDKEDATRRFQILGKVYSVLSDREQRAVYDEQGTVDEDSPVLTQDRDWEAYWRLLFKKISLEDIQAFEKTYKGSEEELADIKQAYLDFKGDMDQIMESVLCVQYTEEPRIRNIIQQAIDAGEVPSYNAFVKESKQKMNARKRRAQEEAKEAEMSRKELGLDEGVDSLKAAIQSRQKDRQKEMDNFLAQMEAKYCKSSKGGGKKSALKKEKK [DNAJC9],0.502,52,51.8,0.21,-3.62,-5.66
MENAHTKTVEEVLGHFGVNESTGLSLEQVKKLKERWGSNELPAEEGKTLLELVIEQFEDLLVRILLLAACISFVLAWFEEGEETITAFVEPFVILLILVANAIVGVWQERNAENAIEALKEYEPEMGKVYRQDRKSVQRIKAKDIVPGDIVEIAVGDKVPADIRLTSIKSTTLRVDQSILTGESVSVIKHTDPVPDPRAVNQDKKNMLFSGTNIAAGKAMGVVVATGVNTEIGKIRDEMVATEQERTPLQQKLDEFGEQLSKVISLICIAVWIINIGHFNDPVHGGSWIRGAIYYFKIAVALAVAAIPEGLPAVITTCLALGTRRMAKKNAIVRSLPSVETLGCTSVICSDKTGTLTTNQMSVCRMFILDRVEGDTCSLNEFTITGSTYAPIGEVHKDDKPVNCHQYDGLVELATICALCNDSALDYNEAKGVYEKVGEATETALTCLVEKMNVFDTELKGLSKIERANACNSVIKQLMKKEFTLEFSRDRKSMSVYCTPNKPSRTSMSKMFVKGAPEGVIDRCTHIRVGSTKVPMTSGVKQKIMSVIREWGSGSDTLRCLALATHDNPLRREEMHLEDSANFIKYETNLTFVGCVGMLDPPRIEVASSVKLCRQAGIRVIMITGDNKGTAVAICRRIGIFGQDEDVTSKAFTGREFDELNPSAQRDACLNARCFARVEPSHKSKIVEFLQSFDEITAMTGDGVNDAPALKKAEIGIAMGSGTAVAKTASEMVLADDNFSTIVAAVEEGRAIYNNMKQFIRYLISSNVGEVVCIFLTAALGFPEALIPVQLLWVNLVTDGLPATALGFNPPDLDIMNKPPRNPKEPLISGWLFFRYLAIGCYVGAATVGAAAWWFIAADGGPRVSFYQLSHFLQCKEDNPDFEGVDCAIFESPYPMTMALSVLVTIEMCNALNSLSENQSLLRMPPWENIWLVGSICLSMSLHFLILYVEPLPLIFQITPLNVTQWLMVLKISLPVILMDETLKFVARNYLEPGKECVQPATKSCSFSACTDGISWPFVLLIMPLVIWVYSTDTNFSDMFWS [ATP2A2],-0.104,51.8,51.8,-0.116,3.11,3.97
MPGHLQEGFGCVVTNRFDQLFDDESDPFEVLKAAENKKKEAGGGGVGGPGAKSAAQAAAQTNSNAAGKQLRKESQKDRKNPLPPSVGVVDKKEETQPPVALKKEGIRRVGRRPDQQLQGEGKIIDRRPERRPPRERRFEKPLEEKGEGGEFSVDRPIIDRPIRGRGGLGRGRGGRGRGMGRGDGFDSRGKREFDRHSGSDRSSFSHYSGLKHEDKRGGSGSHNWGTVKDELTESPKYIQKQISYNYSDLDQSNVTEETPEGEEHHPVADTENKENEVEEVKEEGPKEMTLDEWKAIQNKDRAKVEFNIRKPNEGADGQWKKGFVLHKSKSEEAHAEDSVMDHHFRKPANDITSQLEINFGDLGRPGRGGRGGRGGRGRGGRPNRGSRTDKSSASAPDVDDPEAFPALA [SERBP1],-0.123,58.8,–,0.395,-1.78,-8.72
MGDHAWSFLKDFLAGGVAAAVSKTAVAPIERVKLLLQVQHASKQISAEKQYKGIIDCVVRIPKEQGFLSFWRGNLANVIRYFPTQALNFAFKDKYKQLFLGGVDRHKQFWRYFAGNLASGGAAGATSLCFVYPLDFARTRLAADVGKGAAQREFHGLGDCIIKIFKSDGLRGLYQGFNVSVQGIIIYRAAYFGVYDTAKGMLPDPKNVHIFVSWMIAQSVTAVAGLVSYPFDTVRRRMMMQSGRKGADIMYTGTVDCWRKIAKDEGAKAFFKGAWSNVLRGMGGAFVLVLYDEIKKYV [SLC25A4],-0.352,58.1,56.4,-0.117,-2.08,-1.11
MKKFFQEFKADIKFKSAGPGQKLKESVGEKAHKEKPNQPAPRPPRQGPTNEAQMAAAAALARLEQKQSRAWGPTSQDTIRNQVRKELQAEATVSGSPEAPGTNVVSEPREEGSAHLAVPGVYFTCPLTGATLRKDQRDACIKEAILLHFSTDPVAASIMKIYTFNKDQDRVKLGVDTIAKYLDNIHLHPEEEKYRKIKLQNKVFQERINCLEGTHEFFEAIGFQKVLLPAQDQEDPEEFYVLSETTLAQPQSLERHKEQLLAAEPVRAKLDRQRRVFQPSPLASQFELPGDFFNLTAEEIKREQRLRSEAVERLSVLRTKAMREKEEQRGLRKYNYTLLRVRLPDGCLLQGTFYARERLGAVYGFVREALQSDWLPFELLASGGQKLSEDENLALNECGLVPSALLTFSWDMAVLEDIKAAGAEPDSILKPELLSAIEKLL [UBXN6],0.337,–,47.8,-0.0563,0.361,0.361
MAQESPKNSAAEIPVTSNGEVDDSREHSFNRDLKHSLPSGLGLSETQITSHGFDNTKEGVIEAGAFQGSPAPPLPSVMSPSRVAASRLAQQGSDLIVPAGGQRTQTKSGPVILADEIKNPAMEKLELVRKWSLNTYKCTRQIISEKLGRGSRTVDLELEAQIDILRDNKKKYENILKLAQTLSTQLFQMVHTQRQLGDAFADLSLKSLELHEEFGYNADTQKLLAKNGETLLGAINFFIASVNTLVNKTIEDTLMTVKQYESARIEYDAYRTDLEELNLGPRDANTLPKIEQSQHLFQAHKEKYDKMRNDVSVKLKFLEENKVKVLHNQLVLFHNAIAAYFAGNQKQLEQTLKQFHIKLKTPGVDAPSWLEEQ [ARFIP1],0.623,51.2,50.9,-0.00419,-0.0158,0.558
MPKGGRKGGHKGRARQYTSPEEIDAQLQAEKQKAREEEEQKEGGDGAAGDPKKEKKSLDSDESEDEEDDYQQKRKGVEGLIDIENPNRVAQTTKKVTQLDLDGPKELSRREREEIEKQKAKERYMKMHLAGKTEQAKADLARLAIIRKQREEAARKKEEERKAKDDATLSGKRMQSLSLNK [PDAP1],0.734,57.9,54.2,0.473,-6.85,-6.55
MDTGVIEGGLNVTLTIRLLMHGKEVGSIIGKKGESVKKMREESGARINISEGNCPERIITLAGPTNAIFKAFAMIIDKLEEDISSSMTNSTAASRPPVTLRLVVPASQCGSLIGKGGCKIKEIRESTGAQVQVAGDMLPNSTERAITIAGIPQSIIECVKQICVVMLETLSQSPPKGVTIPYRPKPSSSPVIFAGGQDRYSTGSDSASFPHTTPSMCLNPDLEGPPLEAYTIQGQYAIPQPDLTKLHQLAMQQSHFPMTHGNTGFSGIESSSPEVKGYWGLDASAQTTSHELTIPNDLIGCIIGRQGAKINEIRQMSGAQIKIANPVEGSTDRQVTITGSAASISLAQYLINVRLSSETGGMGSS [PCBP2],0.222,47.9,49.5,-0.136,1.75,7.6
MKRQGASSERKRARIPSGKAGAANGFLMEVCVDSVESAVNAERGGADRIELCSGLSEGGTTPSMGVLQVVKQSVQIPVFVMIRPRGGDFLYSDREIEVMKADIRLAKLYGADGLVFGALTEDGHIDKELCMSLMAICRPLPVTFHRAFDMVHDPMAALETLLTLGFERVLTSGCDSSALEGLPLIKRLIEQAKGRIVVMPGGGITDRNLQRILEGSGATEFHCSARSTRDSGMKFRNSSVAMGASLSCSEYSLKVTDVTKVRTLNAIAKNILV [CUTC],-0.00165,54.4,54.1,-0.0574,-0.146,-0.357
MESGFTSKDTYLSHFNPRDYLEKYYKFGSRHSAESQILKHLLKNLFKIFCLDGVKGDLLIDIGSGPTIYQLLSACESFKEIVVTDYSDQNLQELEKWLKKEPEAFDWSPVVTYVCDLEGNRVKGPEKEEKLRQAVKQVLKCDVTQSQPLGAVPLPPADCVLSTLCLDAACPDLPTYCRALRNLGSLLKPGGFLVIMDALKSSYYMIGEQKFSSLPLGREAVEAAVKEAGYTIEWFEVISQSYSSTMANNEGLFSLVARKLSRPL [NNMT],0.584,53.4,53.7,-0.0166,3.88,4.37

# Source: the supplement of paper PMC5998384
